These results are taken from the Immune Epitope Database (IEDB).

The target in one experiment is HLA-A*29:02. In words: IEDB peptide-MHC binding, purified MHC/competitive/fluorescence; filed as Kd, often an IC50 or EC50 that approximates it; ≥ and ≤ were set here for values at or beyond the usual limits of such assays.
The target in a further experiment is HLA-B*15:03. In words: IEDB peptide-MHC binding, purified MHC/competitive/radioactivity; filed as Kd, often an IC50 or EC50 that approximates it; ≥ and ≤ were set here for values at or beyond the usual limits of such assays.
Another experiment concerns the target HLA-B*35:01. The experiment can be described thus: IEDB peptide-MHC binding, purified MHC/competitive/fluorescence; filed as Kd, often an IC50 or EC50 that approximates it; ≥ and ≤ were set here for values at or beyond the usual limits of such assays.
Experiment [1] has as its target HLA-B*15:01. The experiment is described as above.
The next experiment has as its target HLA-A*26:01. Described as above. To be noted: source organism: Salmonella enterica subsp. enterica serovar Typhi.
The next experiment concerns the target HLA-B*39:01. In words: IEDB peptide-MHC binding, purified MHC/direct/fluorescence; filed as Kd, often an IC50 or EC50 that approximates it; ≥ and ≤ were set here for values at or beyond the usual limits of such assays. To be noted: source organism: Influenza A virus (A/Cameron/1946(H1N1)).
The target of a further experiment is HLA-A*32:01. The experiment can be described thus: IEDB peptide-MHC binding, purified MHC/competitive/radioactivity; filed as Kd, often an IC50 or EC50 that approximates it; ≥ and ≤ were set here for values at or beyond the usual limits of such assays.
The next experiment deals with HLA-B*08:01. Described as above. To be noted: source organism: Vaccinia virus WR.
For experiment [2], the target named is HLA-B*15:01. The description is as above. As to conditions: source organism: Vaccinia virus WR.
The target of another experiment is HLA-A*30:01. The description is as above. As to conditions: source organism: Vaccinia virus WR.
Where [3] appears, read: source organism: Vaccinia virus WR.
Setting [4] is: source organism: Salmonella enterica subsp. enterica serovar Typhi.
[5] abbreviates: source organism: Vaccinia virus Copenhagen.
The mark [6] stands for this setting: source organism: Yersinia pestis Nepal516.

As usually defined, the Kd is a measure of binding affinity in units of concentration.

Take YMYIMKLHH: in the experiment with HLA-A*29:02 (source organism: Mycobacterium leprae), the dissociation constant (Kd) worked out at 36 nM.
For ILVPNINIL, the Kd with HLA-B*15:03 (setting [3]) is 600 nM.
Regarding SQFTCSLAV, the Kd with HLA-B*15:03 (setting [3]) amounted to 1.47 nM.
In the case of FAHDDRYLY, the Kd stood at 0.2 nM in the experiment with HLA-B*35:01 (setting [4]), 200 nM with HLA-B*15:01 [1] (setting [4]) and 54.4 nM with HLA-A*26:01.
On to IKENSIYSF, for which the Kd with HLA-B*15:03 (setting [3]) is 1.45 nM.
The sequence SNENGGPPL returned a Kd with HLA-B*39:01 of no less than 20000 nM.
In the case of IIFMNLYSF, the Kd in the experiment with HLA-A*32:01 (setting [5]) worked out at 1.25 nM; in the experiment with HLA-B*15:03 (setting [5]), 10.7 nM.
Take KVREHTFVK: the Kd with HLA-B*08:01 is no less than 45400 nM; with HLA-B*15:01 [2], 4120 nM; in the experiment with HLA-A*32:01 (setting [3]), 148 nM; in the experiment with HLA-B*15:03 (setting [3]) it was 19300 nM; with HLA-A*30:01, 2.12 nM.
On the same counts, the results for SKYAGINIL are 16300 nM, 5640 nM, 16100 nM, 0.271 nM and 546 nM.
MMVSTENNL: the Kd with HLA-B*15:03 (setting [3]) is 11 nM.
Turning to AQYASTLSV, in the experiment with HLA-B*15:03 (setting [3]), the Kd stood at 0.162 nM.
The sequence VSRLFWYGY displayed a Kd with HLA-A*29:02 (source organism: Bacillus anthracis str. A0488) of 75.9 nM.
Sequence QKMHNHYAY had a Kd in the experiment with HLA-A*29:02 (source organism: Escherichia coli HS) of 19.9 nM.
With FSKKKVCFV, the Kd in the experiment with HLA-B*08:01 is 5.98 nM; with HLA-B*15:01 [2], 1850 nM; with HLA-A*32:01 (setting [3]), no less than 35400 nM; with HLA-B*15:03 (setting [3]), 13100 nM; in the experiment with HLA-A*30:01, 1160 nM.
Take YQTSVSQVA: in the experiment with HLA-B*15:03 (setting [3]), the dissociation constant (Kd) turned out to be 1.45 nM.
On to VMVTSKPLF, for which the Kd with HLA-B*08:01 was determined as 3540 nM; with HLA-B*15:01 [2], 15.9 nM; with HLA-A*32:01 (setting [3]), 18100 nM; with HLA-B*15:03 (setting [3]) it was 8.79 nM; with HLA-A*30:01 it was 15600 nM.
In the case of SMIDNSHLE, in the experiment with HLA-A*29:02 (source organism: Cryptosporidium parvum Iowa II), the Kd came to 68.3 nM.
As for NSYTLLLAY, the Kd with HLA-B*35:01 (setting [6]) is 49 nM; with HLA-B*15:01 [1] (setting [6]), 676 nM.
Regarding IKTMMINPF, in the experiment with HLA-B*15:03 (setting [3]), the Kd was found to be 0.191 nM.
